Test results as given in patent US12594347B2, “Nanoparticulate drug delivery systems” (Duke University, priority 2018, dated 2026).
Where two headings read alike, the source gives them in different places.

Tests used:
[1] = Biodistribution in C26 tumor-bearing mice; assay type: in vivo, Balb/C mice; settings: mouse, in vivo
Description: Cell culture and tumor inoculation.
Biodistribution. […] At 2 and 24 h after injection, tissues (tumor, muscle, heart, lung, liver, spleen and kidney) were removed, weighed and suspended in 1.0 mL acidified isopropanol (75 mM HCl, 10% water, 90% isopropanol). Tissues were then homogenized using 2 mm diameter zirconia beads and a MiniBeadbeater-1TM (Biospec; Bartlesville, OK) for 2 min at 5,000 beats per minute and were incubated overnight at 4° C. in the dark. The isopropanol extracts were then vortexed, and centrifuged (14,000 RPM, 10 min, 4° C.) and 125 uL of the supernatant was loaded onto a black 96-well plate (BD Biosciences) in duplicate. […] To correct for background tissue fluorescence, tissues were removed from three untreated control mice and were processed similarly. For each tissue, a background (counts per mg tissue) curve was created using 2-fold dilutions of the processed tissues in acidified isopropanol.

[2] = test system: C26 murine colon adenocarcinoma cells
Description: C26 murine colon adenocarcinoma cells were seeded (5000 cells/well) in a 96-well plate. After 24 h, cells were treated in triplicate with 3-fold serial dilutions of drugs beginning with 100 uM. After 72 h incubation, 20 μL of CellTiter 96 AQueous™ (Promega; Madison, WI) 3-(4,5-dimethlthiazol-2-yl)-5-(3-carboxymethoxphenyl)-2-(4-sulfophenyl)-2H-tetrazolium (MTS) reagent was added to each well followed by 3 h incubation at 37° C. The absorbance at 490 nm was determined using a Victor3™ microplate reader (Perkin Elmer; Waltham, MA). For each plate, blank wells (with no cells) were defined as 0% viability and wells treated with PBS were defined as 100% viability. The background absorbance at 490 nm was corrected by subtracting the average absorbance of the blank wells from each well. The percent viability was defined as the absorbance of each well normalized to the absorbance of wells treated with PBS. Inhibitory concentration (IC 50) values were calculated using a four-parameter logistic fit in the Prism program (GraphPad Software, San Diego, CA, USA).

Canine pharmacokinetics = assay: Canine pharmacokinetics
Description: Canine pharmacokinetics and toxicities. […] All procedures and protocols involving care, handling, and dosing for this study were reviewed and approved by the Institutional Animal Care and Use Committee (IACUC) at North Carolina State University College of Veterinary Medicine, which is an AAALAC-accredited facility. The animals' health status were monitored daily by the animal technicians and veterinary staff, paying particular attention for signs of gastrointestinal toxicities including vomiting, diarrhea, lethargy, and inappetence. If noted, supportive care was provided. […] 2 mL blood samples were drawn from jugular vein at 40 s, 15 and 30 min, 2, 4, 8, 24, 48, and 72 h after injection, diluted into 400 μL heparinized PBS (1000 UmL^−1). Sample processing and analysis were performed as with murine pharmacokinetics studies.

[3] = test system: MDA-MB-231 human breast cancer cells; assay: In vitro cytotoxicity, MTS assay, MDA-MB-231 cells; assay type: cell-based; settings: 72 h incubation, read-out: half-maximal inhibitory concentration (IC50)
Description: In vitro cytotoxicity of the ABDN-CP-PTX versus that of naked CP-PTX and free PTX was determined using the […] MTS assay. […] The MTS assay was repeated twice to ensure validity of results.

[4] = Pharmacokinetics of Alexa488-labeled ABD-ELP and ELP monomers in mice; assay type: in vivo; settings: tail vein, Balb/C mice, two-compartment model
Description: A single cysteine was added to the C-terminus of polypeptides and was reacted with Alexa 488-maleimide (Life Technologies, Carlsbad, CA, USA). 50 uL Alexa 488-maleimide at 27.75 uM in DMSO was added to the polypeptide solution in the reaction (250 uM) and was allowed to stir for 3 hr at room temperature in the dark. Unbound Alexa488 was then removed by Amicon ultra-15 centrifugal filter units (MWCO 10 kDa, Millipore) and in PBS. Alexa488 concentration and conjugation efficiency was then determined.
125 uL of the supernatant was loaded onto a black 96-well plate (BD Biosciences) in duplicate. Free Alexa488-maleimide solutions at various known concentrations were prepared in heparinized PBS and were loaded onto the plate as standards. Alexa488 fluorescence was measured on a Wallac Victor3 TM microplate reader (Perkin Elmer; Waltham, MA).

[5] = Thermal turbidimetry (transition temperature); assay type: physicochemical
Description: Thermal Turbidimetry. Thermal profiles of CPs and CP conjugates were determined by measuring the transition temperature (Tt) over a range of concentrations (5, 10, 25, 50, and 100 uM) in PBS, FBS, and MS using a Cary UV-visible spectrophotometer equipped with temperature controller (Agilent Technologies, CA, USA). […] The transition temperature was defined as the maximum first derivative of the optical density.

[6] = target: T1, human serum albumin (HSA) (Homo sapiens, UniProt P02768); assay: Isothermal titration calorimetry (VP-ITC) of polypeptide carriers with human albumin; assay type: binding; settings: PBS pH 7.4, 37° C.
Description: (§1) Interaction with albumin. Interaction of CP monomers and micelles with human and mouse albumin was analyzed by isothermal titration calorimetry (ITC).

[7] = target: T2, mouse serum albumin (MSA) (Mus musculus, UniProt P07724); assay: Isothermal titration calorimetry (Nano ITC) for PTX conjugates with mouse albumin; assay type: binding
T2 sequence (P07724 25-608): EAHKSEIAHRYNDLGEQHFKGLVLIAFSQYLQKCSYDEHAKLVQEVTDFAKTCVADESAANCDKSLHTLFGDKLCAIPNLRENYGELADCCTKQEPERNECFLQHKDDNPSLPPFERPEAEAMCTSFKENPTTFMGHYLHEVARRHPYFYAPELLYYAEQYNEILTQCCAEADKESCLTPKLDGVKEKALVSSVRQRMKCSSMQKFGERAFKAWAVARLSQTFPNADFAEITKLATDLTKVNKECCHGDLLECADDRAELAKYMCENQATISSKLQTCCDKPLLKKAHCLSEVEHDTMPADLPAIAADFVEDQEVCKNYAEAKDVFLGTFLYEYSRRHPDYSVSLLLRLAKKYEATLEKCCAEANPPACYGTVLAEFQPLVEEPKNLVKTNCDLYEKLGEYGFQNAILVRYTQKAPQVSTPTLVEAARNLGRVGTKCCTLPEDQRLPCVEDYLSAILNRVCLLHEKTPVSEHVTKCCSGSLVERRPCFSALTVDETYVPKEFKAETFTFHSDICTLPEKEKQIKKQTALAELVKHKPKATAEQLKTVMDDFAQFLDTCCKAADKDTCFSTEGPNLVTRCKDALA
Description: (§2) For PTX conjugates, ITC was conducted using a Nano ITC system (TA Instruments, Utah, USA). Aliquots of 10 uL of 500 uM albumin in PBS were titrated via a 250 μl syringe into CP-PTX at 50 uM concentration, stirring at 300 rpm at 37° C. For background correction, PBS (in the cell) was titrated with albumin (in the syringe) at the same concentrations and conditions. Background was subtracted from the final curves and the binding and thermodynamic parameters binding constant (KD), number of binding sites (n), and enthalpy (ΔH)—were computed by non-linear fitting to an independent-binding site model using TA Instruments NanoAnalyze software.

[8] = target: T1, human serum albumin (HSA); assay: Isothermal titration calorimetry (Nano ITC) for PTX conjugates with human albumin; assay type: binding
Description: as §2

[9] = target: T2, mouse serum albumin (MSA); assay: Isothermal titration calorimetry (VP-ITC) of polypeptide carriers and DOX micelles with mouse albumin; assay type: binding; settings: PBS pH 7.4, 37° C.
Description: as §1

[10] = Dynamic and static light scattering; assay type: physicochemical; settings: for % Intensity / Polydispersity / Rh: DLS
Description: Light Scattering. Dynamic and static light scattering measurements were performed using an ALV/CGS-3 goniometer system (Germany). […] To study the effect of albumin binding on micellar self-assembly, mouse albumin was added to the samples at 1:1 albumin-CP molar ratio in PBS. Measurements were obtained at 25° C. and 37° C. for angles between 30-150° at 5° increments with each angle consisting of 3 runs and 10 s each at each run. Hydrodynamic radius (Rh) was determined by dynamic light scattering. The radius of gyration (Rg) and the average molecular weight of the particle (MW) were calculated from the slope and intercept of a partial Zimm plot, respectively, using ALV/Dynamic and Static FIT and PLOT software and according. The micelle aggregation number Nagg, or the number of polypeptide chains per nanoparticle, was calculated by dividing the micelle molecular weight by the molecular weight of the polypeptide monomer.
Size and morphology of CP conjugated micelles. The radius and the aggregation number of the self-assembled micelles were determined, in the presence and absence of albumin, by dynamic and static light scattering at 37° C. using an ALV/CGS-3 goniometer system (Germany). Freeze fracture electron microscopy was performed to visualize the micelles and estimate their radius and morphology.

[11] = dogs, cephalic vein, 27 DOX Equiv/m^−2 BSA or 0.9 mg DOX Equiv/kg BW

Question: What does the source list for `COc1cccc2c1C(=O)c1c(O)c3c(c(O)c1C2=O)C[C@@](O)(C(=O)CO)C[C@@H]3O[C@H]1C[C@H](N)[C@H](O)[C@H](C)O1` [DOX, doxorubicin, reference compound]?
Answer: accumulation in the spleen (in words) [1]: lower accumulation in the spleen than CP-DOX micelles; distribution to the heart, lung, kidneys, and muscle (in words) [1]: greater extent; IC50 [2]: 90 nM; Apparent distribution volume VD (Canine pharmacokinetics; dog, in vivo): 3.85 ± 0.26 mL/g; Plasma clearance CL (Canine pharmacokinetics; dog, in vivo): 0.7875 ± 0.0951 mL/h/g; Distribution half-life β t1/2 (Canine pharmacokinetics; [11]): 3.6 ± 0.5 min; Elimination rate constant kg (Canine pharmacokinetics; [11]): 0.96 ± 0.13 h⁻¹; Plasma to tissue rate constant kpt (Canine pharmacokinetics; [11]): 8.51 ± 1.20 h⁻¹; Elimination half-life α t1/2 (Canine pharmacokinetics; dogs, cephalic vein, 27 DOX Equiv/m^−2 BSA or 0.9 mg DOX Equiv/kg BW, plasma DOX): 2.9 ± 0.8 h

Question: With `CC(=O)O[C@H]1C(=O)[C@@]2(C)[C@H]([C@H](OC(=O)c3ccccc3)[C@]3(O)C[C@H](OC(=O)[C@H](O)[C@@H](NC(=O)c4ccccc4)c4ccccc4)C(C)=C1C3(C)C)[C@]1(OC(C)=O)CO[C@@H]1C[C@@H]2O` [free PTX, paclitaxel, reference compound] as the molecule, how does the IC50 ([3]; MDA-MB-231, printed MDA-MB-213 human breast cancer cells) read?
Answer: 9.8 nM

B1: ABDN-ELP: ELP scaffold with albumin binding domain ABDN (SEQ ID NO:6) fused to the N-terminus and C-terminal cysteine sequence (protein)
chain: LAEAKVLANRELDKYGVSDYYKNLINNAKTVEGVKALIDEILAALPVPGAGVPGAGVPGAGVPGAGVPGAGVPGAGVPGAGVPGAGVPGAGVPGAGVPGAGVPGAGVPGAGVPGAGVPGAGVPGAGVPGAGVPGAGVPGAGVPGAGVPGAGVPGAGVPGAGVPGAGVPGAGVPGAGVPGAGVPGAGVPGAGVPGAGVPGAGVPGAGVPGAGVPGAGVPGAGVPGAGVPGAGVPGAGVPGAGVPGAGVPGAGVPGAGVPGAGVPGAGVPGAGVPGAGVPGAGVPGAGVPGAGVPGAGVPGAGVPGAGVPGAGVPGAGVPGAGVPGAGVPGAGVPGAGVPGAGVPGAGVPGAGVPGAGVPGAGVPGAGVPGAGVPGAGVPGAGVPGAGVPGAGVPGAGVPGAGVPGAGVPGAGVPGAGVPGAGVPGAGVPGAGVPGAGVPGAGVPGAGVPGAGVPGAGVPGAGVPGAGVPGAGVPGAGVPGAGVPGAGVPGAGVPGAGVPGAGVPGAGVPGAGVPGAGVPGAGVPGAGVPGAGVPGAGVPGAGVPGAGVPGAGVPGAGVPGAGVPGAGVPGAGVPGAGVPGAGVPGAGVPGAGVPGAGVPGAGVPGAGVPGAGVPGAGVPGAGVPGAGVPGAGVPGAGVPGAGVPGAGVPGAGVPGAGVPGAGVPGAGVPGAGVPGAGVPGAGVPGAGVPGAGVPGAGVPGAGVPGAGVPGAGVPGAGVPGAGVPGAGVPGAGVPGAGVPGAGVPGAGVPGAGVPGAGVPGAGVPGAGVPGAGVPGAGCGGCGGCGGCGGCGGCGGCGGCGG
Question: Which “Apparent distribution volume VD” value [4] does the source give for B1 here?
Answer: 0.27 ± 0.01 mL/g

Question: And the “Area under the curve AUC” value [4]?
Answer: 80.2 ± 1.9 µM·h

Question: And the “Distribution half-life β t1/2” value [4]?
Answer: 1.24 ± 0.295 h

Question: And the “Elimination half-life α t1/2” value [4]?
Answer: 16.8 ± 0.5 h

Question: And the “Elimination rate constant kg” value [4]?
Answer: 0.08 ± 0.00 h⁻¹

Question: And the “Plasma clearance CL” value [4]?
Answer: 0.012 ± 0.000 mL/h/g

Question: And the “Plasma to tissue rate constant kpt” value [4]?
Answer: 0.21 ± 0.06 h⁻¹

Question: And the “Tissue to plasma rate constant ktp” value [4]?
Answer: 0.31 ± 0.07 h⁻¹

Question: And the “Elimination half-life α t1/2” value ([4]; listed as ABDN-CP)?
Answer: 17 h

Question: And the transition temperature ([5]; 100 μM concentration in PBS)?
Answer: 57 °C

Question: What about the Tt ([5]; ABDN-CP fusions for conjugation with Paclitaxel) of the same molecule?
Answer: 48 °C

Question: What about the “binding stoichiometry N” value [6] of the same molecule?
Answer: 1.04±0.00

Question: And the “n (number of binding sites)” value ([7]; listed as ABD-CP)?
Answer: 1.05

Question: And the “n (number of binding sites)” value ([8]; listed as ABD-CP)?
Answer: 0.95

Question: What about the “binding stoichiometry N” value [9] of the same molecule?
Answer: 1.12±0.00

B2: ABD-CP-PTX (conjugate)
chain: LAEAKVLANRELDKYGVSDYYKNLINNAKTVEGVKALIDEILAALPVPGAGVPGAGVPGAGVPGAGVPGAGVPGAGVPGAGVPGAGVPGAGVPGAGVPGAGVPGAGVPGAGVPGAGVPGAGVPGAGVPGAGVPGAGVPGAGVPGAGVPGAGVPGAGVPGAGVPGAGVPGAGVPGAGVPGAGVPGAGVPGAGVPGAGVPGAGVPGAGVPGAGVPGAGVPGAGVPGAGVPGAGVPGAGVPGAGVPGAGVPGAGVPGAGVPGAGVPGAGVPGAGVPGAGVPGAGVPGAGVPGAGVPGAGVPGAGVPGAGVPGAGVPGAGVPGAGVPGAGVPGAGVPGAGVPGAGVPGAGVPGAGVPGAGVPGAGVPGAGVPGAGVPGAGVPGAGVPGAGVPGAGVPGAGVPGAGVPGAGVPGAGVPGAGVPGAGVPGAGVPGAGVPGAGVPGAGVPGAGVPGAGVPGAGVPGAGVPGAGVPGAGVPGAGVPGAGVPGAGVPGAGVPGAGVPGAGVPGAGVPGAGVPGAGVPGAGVPGAGVPGAGVPGAGVPGAGVPGAGVPGAGVPGAGVPGAGVPGAGVPGAGVPGAGVPGAGVPGAGVPGAGVPGAGVPGAGVPGAGVPGAGVPGAGVPGAGVPGAGVPGAGVPGAGVPGAGVPGAGVPGAGVPGAGVPGAGVPGAGVPGAGVPGAGVPGAGVPGAGVPGAGVPGAGVPGAGVPGAGVPGAGVPGAGVPGAGVPGAGVPGAGVPGAGVPGAGVPGAGVPGAGVPGAGVPGAGCGGCGGCGGCGGCGGCGGCGGCGG
Question: Which “% Intensity” value ([10]; Concentration 20 μM) does the source give for B2 here?
Answer: 95.4%

Question: What about the Polydispersity ([10]; Concentration 20 μM) of the same molecule?
Answer: 24.6%

Question: What about the Rh ([10]; Concentration 20 μM) of the same molecule?
Answer: 39.6 ± 2.2 nm

Question: What about the “% Intensity” value ([10]; Concentration 40 μM) of the same molecule?
Answer: 96.6%

Question: What about the Polydispersity ([10]; Concentration 40 μM) of the same molecule?
Answer: 26.6%

Question: And the Rh ([10]; Concentration 40 μM)?
Answer: 44.1 ± 4.7 nm

Question: And the Nagg ([10]; SLS, 20 μM concentration)?
Answer: 64.5

Question: And the RG ([10]; SLS, 20 μM concentration)?
Answer: 42.83 nm

Question: And the “aggregation (in words)” value ([10]; body temperature (37° C.))?
Answer: no aggregates

Question: And the IC50 ([3]; printed MDA-MB-213 human breast cancer cells)?
Answer: 10.9 nM

Question: What about the “n (number of binding sites)” value [7] of the same molecule?
Answer: 0.95

Question: And the “n (number of binding sites)” value [8]?
Answer: 0.92
